In the supplement of paper PMC5998384:

Assays:
[1] = system: HeLa Kyoto; assay: solubility change mitosis vs G1/S (difference of NP-40 vs SDS log2 ratios) (log2 ratio difference); higher = more soluble in mitosis
[2] = system: HeLa Kyoto; assay: melting temperature (median over replicates), in situ; higher = more thermally stable
[3] = system: HeLa Kyoto; assay: thermal stability score vs G1/S (z-score of summed log2 fold changes over temperatures); higher = more thermally stable than in G1/S
[4] = system: HeLa Kyoto; assay: solubility in G1/S (NP-40 vs SDS abundance) (log2 ratio); higher = more soluble; details: cell cycle stage: G1/S
[5] = cell cycle stage: early G1 (4.5 h after nocodazole release)
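Wherever melting temperature (median over replicates), in situ is given: HeLa Kyoto cells synchronized by double thymidine or nocodazole block, proteins quantified by TMT10plex mass spectrometry, three independent biological replicates.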
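Wherever solubility change mitosis vs G1/S (difference of NP-40 vs SDS log2 ratios) is given: synchronized HeLa Kyoto cells (double thymidine block for G1/S, nocodazole release for mitosis), protein amounts in NP-40 versus SDS lysates quantified by mass spectrometry, three biological replicates.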
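Wherever solubility in G1/S (NP-40 vs SDS abundance) is given: HeLa Kyoto cells arrested at G1/S by double thymidine block, proteins quantified by TMT10plex mass spectrometry in mild NP-40 versus SDS extracts, three biological replicates.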
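Wherever thermal stability score vs G1/S (z-score of summed log2 fold changes over temperatures) is given: synchronized HeLa Kyoto cells, proteins quantified by TMT10plex mass spectrometry, three biological replicates, mitosis taken 0.5 h after nocodazole release, G1/S directly after double thymidine block.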

Sequence of PCYT1A (chain, as listed by the source): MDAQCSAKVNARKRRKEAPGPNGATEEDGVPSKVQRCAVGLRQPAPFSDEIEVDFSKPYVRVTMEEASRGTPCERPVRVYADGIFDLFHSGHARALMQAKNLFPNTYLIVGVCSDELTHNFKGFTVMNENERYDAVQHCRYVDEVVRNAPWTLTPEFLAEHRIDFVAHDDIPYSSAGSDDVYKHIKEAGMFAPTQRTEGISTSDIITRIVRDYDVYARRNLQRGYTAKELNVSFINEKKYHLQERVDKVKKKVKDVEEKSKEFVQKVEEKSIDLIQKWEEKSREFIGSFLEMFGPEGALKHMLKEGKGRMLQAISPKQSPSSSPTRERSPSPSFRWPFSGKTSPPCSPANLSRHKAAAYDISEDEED

Substance | solubility change mitosis (log2) [1] | melting temperature ([2]; cell cycle stage: G1/S) | melting temperature ([2]; cell cycle stage: mitosis) | thermal stability score [3, 5] | thermal stability score ([3]; cell cycle stage: mitosis) | solubility in G1/S (log2) [4]
MRRLPRALLLQLRLALLVAAGAPEVLVSAPRSLVWGPGLQAAVVLPVRYFYLQAVNSEGQNLTRSPAGETPFKVVVKSLSPKELVRIHVPKPLDRNDGTFLMRYRMYETVDEGLKIEVLYGDEHVAQSPYILKGPVYHEYCECPEDPQAWQKTLSCPTKEPQIAKDFASFPSINLQQMLKEVPKRFGDERGAIVHYTILNNHVYRRSLGKYTDFKMFSDEILLSLTRKVLLPDLEFYVNLGDWPLEHRKVNGTPSPIPIISWCGSLDSRDVVLPTYDITHSMLEAMRGVTNDLLSIQGNTGPSWINKTERAFFRGRDSREERLQLVQLSKENPQLLDAGITGYFFFQEKEKELGKAKLMGFFDFFKYKYQVNVDGTVAAYRYPYLMLGDSLVLKQDSPYYEHFYMALEPWKHYVPIKRNLSDLLEKVKWAKENDEEAKKIAKEGQLMARDLLQPHRLYCYYYQVLQKYAERQSSKPEVRDGMELVPQPEDSTAICQCHRKKPSREEL [KDELC2] | -0.048 | 53.8 °C | 54.9 °C | 4.98 | 4.71 | 0.282
MKLSRQFTVFGSAIFCVVIFSLYLMLDRGHLDYPRNPRREGSFPQGQLSMLQEKIDHLERLLAENNEIISNIRDSVINLSESVEDGPKSSQSNFSQGAGSHLLPSQLSLSVDTADCLFASQSGSHNSDVQMLDVYSLISFDNPDGGVWKQGFDITYESNEWDTEPLQVFVVPHSHNDPGWLKTFNDYFRDKTQYIFNNMVLKLKEDSRRKFIWSEISYLSKWWDIIDIQKKDAVKSLIENGQLEIVTGGWVMPDEATPHYFALIDQLIEGHQWLENNIGVKPRSGWAIDPFGHSPTMAYLLNRAGLSHMLIQRVHYAVKKHFALHKTLEFFWRQNWDLGSVTDILCHMMPFYSYDIPHTCGPDPKICCQFDFKRLPGGRFGCPWGVPPETIHPGNVQSRARMLLDQYRKKSKLFRTKVLLAPLGDDFRYCEYTEWDLQFKNYQQLFDYMNSQSKFKVKIQFGTLSDFFDALDKADETQRDKGQSMFPVLSGDFFTYADRDDHYWSGYFTSRPFYKRMDRIMESHLRAAEILYYFALRQAHKYKINKFLSSSLYTALTEARRNLGLFQHHDAITGTAKDWVVVDYGTRLFHSLMVLEKIIGNSAFLLILKDKLTYDSYSPDTFLEMDLKQKSQDSLPQKNIIRLSAEPRYLVVYNPLEQDRISLVSVYVSSPTVQVFSASGKPVEVQVSAVWDTANTISETAYEISFRAHIPPLGLKVYKILESASSNSHLADYVLYKNKVEDSGIFTIKNMINTEEGITLENSFVLLRFDQTGLMKQMMTKEDGKHHEVNVQFSWYGTTIKRDKSGAYLFLPDGNAKPYVYTTPPFVRVTHGRIYSEVTCFFDHVTHRVRLYHIQGIEGQSVEVSNIVDIRKVYNREIAMKISSDIKSQNRFYTDLNGYQIQPRMTLSKLPLQANVYPMTTMAYIQDAKHRLTLLSAQSLGVSSLNSGQIEVIMDRRLMQDDNRGLEQGIQDNKITANLFRILLEKRSAVNTEEEKKSVSYPSLLSHITSSLMNHPVIPMANKFSSPTLELQGEFSPLQSSLPCDIHLVNLRTIQSKVGNGHSNEAALILHRKGFDCRFSSKGTGLFCSTTQGKILVQKLLNKFIVESLTPSSLSLMHSPPGTQNISEINLSPMEISTFRIQLR [MAN2A1] | -0.156 | 54.8 °C | 54.8 °C | 2.95 | 3.08 | -0.0419
MDTPLRRSRRLGGLRPESPESLTSVSRTRRALVEFESNPEETREPGSPPSVQRAGLGSPERPPKTSPGSPRLQQGAGLESPQGQPEPGAASPQRQQDLHLESPQRQPEYSPESPRCQPKPSEEAPKCSQDQGVLASELAQNKEELTPGAPQHQLPPVPGSPEPYPGQQAPGPEPSQPLLELTPRAPGSPRGQHEPSKPPPAGETVTGGFGAKKRKGSSSQAPASKKLNKEELPVIPKGKPKSGRVWKDRSKKRFSQMLQDKPLRTSWQRKMKERQERKLAKDFARHLEEEKERRRQEKKQRRAENLKRRLENERKAEVVQVIRNPAKLKRAKKKQLRSIEKRDTLALLQKQPPQQPAAKI [CCDC86] | 0.956 | 57.2 °C | 54.1 °C | -0.356 | -4.77 | -1.03
MNRGFSRKSHTFLPKIFFRKMSSSGAKDKPELQFPFLQDEDTVATLLECKTLFILRGLPGSGKSTLARVIVDKYRDGTKMVSADAYKITPGARGAFSEEYKRLDEDLAAYCRRRDIRILVLDDTNHERERLEQLFEMADQYQYQVVLVEPKTAWRLDCAQLKEKNQWQLSADDLKKLKPGLEKDFLPLYFGWFLTKKSSETLRKAGQVFLEELGNHKAFKKELRQFVPGDEPREKMDLVTYFGKRPPGVLHCTTKFCDYGKAPGAEEYAQQDVLKKSYSKAFTLTISALFVTPKTTGARVELSEQQLQLWPSDVDKLSPTDNLPRGSRAHITLGCAADVEAVQTGLDLLEILRQEKGGSRGEEVGELSRGKLYSLGNGRWMLTLAKNMEVRAIFTGYYGKGKPVPTQGSRKGGALQSCTII [CNP] | -0.00285 | 50.6 °C | 50.3 °C | 1.08 | 0.579 | 0.107
MTFYLFGIRSFPKLWKSPYLGLGPGHSYVSLFLADRCGIRNQQRLFSLKTMSPQNTKATNLIAKARYLRKDEGSNKQVYSVPHFFLAGAAKERSQMNSQTEDHALAPVRNTIQLPTQPLNSEEWDKLKEDLKENTGKTSFESWIISQMAGCHSSIDVAKSLLAWVAAKNNGIVSYDLLVKYLYLCVFHMQTSEVIDVFEIMKARYKTLEPRGYSLLIRGLIHSDRWREALLLLEDIKKVITPSKKNYNDCIQGALLHQDVNTAWNLYQELLGHDIVPMLETLKAFFDFGKDIKDDNYSNKLLDILSYLRNNQLYPGESFAHSIKTWFESVPGKQWKGQFTTVRKSGQCSGCGKTIESIQLSPEEYECLKGKIMRDVIDGGDQYRKTTPQELKRFENFIKSRPPFDVVIDGLNVAKMFPKVRESQLLLNVVSQLAKRNLRLLVLGRKHMLRRSSQWSRDEMEEVQKQASCFFADDISEDDPFLLYATLHSGNHCRFITRDLMRDHKACLPDAKTQRLFFKWQQGHQLAIVNRFPGSKLTFQRILSYDTVVQTTGDSWHIPYDEDLVERCSCEVPTKWLCLHQKT [KIAA0391] | -0.118 | 47.8 °C | 48.4 °C | 0.296 | 1.88 | 0.189
MARHVFLTGPPGVGKTTLIHKASEVLKSSGVPVDGFYTEEVRQGGRRIGFDVVTLSGTRGPLSRVGLEPPPGKRECRVGQYVVDLTSFEQLALPVLRNADCSSGPGQRVCVIDEIGKMELFSQLFIQAVRQTLSTPGTIILGTIPVPKGKPLALVEEIRNRKDVKVFNVTKENRNHLLPDIVTCVQSSRK [NTPCR] | 0.0287 | 52.6 °C | 53.4 °C | 1.23 | 0.656 | 0.569
PCYT1A | -0.0895 | 51.4 °C | 52.4 °C | 2.25 | 3.79 | 0.341
MAVTGWLESLRTAQKTALLQDGRRKVHYLFPDGKEMAEEYDEKTSELLVRKWRVKSALGAMGQWQLEVGDPAPLGAGNLGPELIKESNANPIFMRKDTKMSFQWRIRNLPYPKDVYSVSVDQKERCIIVRTTNKKYYKKFSIPDLDRHQLPLDDALLSFAHANCTLIISYQKPKEVVVAESELQKELKKVKTAHSNDGDCKTQ [DPCD] | -0.0049 | 49.9 °C | 49 °C | 0.4 | 0.716 | 0.223
MGILEKISEIEKEIARTQKNKATEYHLGLLKAKLAKYRAQLLEPSKSASSKGEGFDVMKSGDARVALIGFPSVGKSTFLSLMTSTASEAASYEFTTLTCIPGVIEYKGANIQLLDLPGIIEGAAQGKGRGRQVIAVARTADVIIMMLDATKGEVQRSLLEKELESVGIRLNKHKPNIYFKPKKGGGISFNSTVTLTQCSEKLVQLILHEYKIFNAEVLFREDCSPDEFIDVIVGNRVYMPCLYVYNKIDQISMEEVDRLARKPNSVVISCGMKLNLDYLLEMLWEYLALTCIYTKKRGQRPDFTDAIILRKGASVEHVCHRIHRSLASQFKYALVWGTSTKYSPQRVGLTHTMEHEDVIQIVKK [DRG2] | -0.113 | 51.9 °C | 51.6 °C | -0.377 | -0.907 | 0.0131
MEPFSCDTFVALPPATVDNRIIFGKNSDRLYDEVQEVVYFPAVVHDNLGERLKCTYIEIDQVPETYAVVLSRPAWLWGAEMGANEHGVCIGNEAVWGREEVCDEEALLGMDLVRLGLERADTAEKALNVIVDLLEKYGQGGNCTEGRMVFSYHNSFLIADRNEAWILETAGKYWAAEKVQEGVRNISNQLSITTKIAREHPDMRNYAKRKGWWDGKKEFDFAAAYSYLDTAKMMTSSGRYCEGYKLLNKHKGNITFETMMEILRDKPSGINMEGEFLTTASMVSILPQDSSLPCIHFFTGTPDPERSVFKPFIFVPHISQLLDTSSPTFELEDLVKKKSHFKPDRRHPLYQKHQQALEVVNNNEEKAKIMLDNMRKLEKELFREMESILQNKHLDVEKIVNLFPQCTKDEIQIYQSNLSVKVSS [SCRN3] | -0.25 | 52.9 °C | 52.3 °C | -0.926 | -0.525 | 0.271
MHDAFEPVPILEKLPLQIDCLAAWEEWLLVGTKQGHLLLYRIRKDVVPADVASPESGSCNRFEVTLEKSNKNFSKKIQQIHVVSQFKILVSLLENNIYVHDLLTFQQITTVSKAKGASLFTCDLQHTETGEEVLRMCVAVKKKLQLYFWKDREFHELQGDFSVPDVPKSMAWCENSICVGFKRDYYLIRVDGKGSIKELFPTGKQLEPLVAPLADGKVAVGQDDLTVVLNEEGICTQKCALNWTDIPVAMEHQPPYIIAVLPRYVEIRTFEPRLLVQSIELQRPRFITSGGSNIIYVASNHFVWRLIPVPMATQIQQLLQDKQFELALQLAEMKDDSDSEKQQQIHHIKNLYAFNLFCQKRFDESMQVFAKLGTDPTHVMGLYPDLLPTDYRKQLQYPNPLPVLSGAELEKAHLALIDYLTQKRSQLVKKLNDSDHQSSTSPLMEGTPTIKSKKKLLQIIDTTLLKCYLHTNVALVAPLLRLENNHCHIEESEHVLKKAHKYSELIILYEKKGLHEKALQVLVDQSKKANSPLKGHERTVQYLQHLGTENLHLIFSYSVWVLRDFPEDGLKIFTEDLPEVESLPRDRVLGFLIENFKGLAIPYLEHIIHVWEETGSRFHNCLIQLYCEKVQGLMKEYLLSFPAGKTPVPAGEEEGELGEYRQKLLMFLEISSYYDPGRLICDFPFDGLLEERALLLGRMGKHEQALFIYVHILKDTRMAEEYCHKHYDRNKDGNKDVYLSLLRMYLSPPSIHCLGPIKLELLEPKANLQAALQVLELHHSKLDTTKALNLLPANTQINDIRIFLEKVLEENAQKKRFNQVLKNLLHAEFLRVQEERILHQQVKCIITEEKVCMVCKKKIGNSAFARYPNGVVVHYFCSKEVNPADT [VPS39] | -0.261 | 50.8 °C | 50.1 °C | 0.627 | 0.376 | -0.174
MDPLGDTLRRLREAFHAGRTRPAEFRAAQLQGLGRFLQENKQLLHDALAQDLHKSAFESEVSEVAISQGEVTLALRNLRAWMKDERVPKNLATQLDSAFIRKEPFGLVLIIAPWNYPLNLTLVPLVGALAAGNCVVLKPSEISKNVEKILAEVLPQYVDQSCFAVVLGGPQETGQLLEHRFDYIFFTGSPRVGKIVMTAAAKHLTPVTLELGGKNPCYVDDNCDPQTVANRVAWFRYFNAGQTCVAPDYVLCSPEMQERLLPALQSTITRFYGDDPQSSPNLGRIINQKQFQRLRALLGCGRVAIGGQSDESDRYIAPTVLVDVQEMEPVMQEEIFGPILPIVNVQSLDEAIEFINRREKPLALYAFSNSSQVVKRVLTQTSSGGFCGNDGFMHMTLASLPFGGVGASGMGRYHGKFSFDTFSHHRACLLRSPGMEKLNALRYPPQSPRRLRMLLVAMEAQGCSCTLL [ALDH3B1] | -0.152 | 52.2 °C | 51.8 °C | 0.958 | 1.14 | 0.252
